Data: patent publication US20220073604A1 (ARGENX BVBA, published 2022)

Legend:
[1] = target: human IL-6 (as added in the B9 and 7TD1 bioassays) (human, UniProt P05231 30-212); assay: cell-based or functional assay
[2] = target: T1, bacterially produced human IL-6 (human, UniProt P05231 30-212); assay: SPR; purified Fab over biotinylated IL-6 on streptavidin chip
T1 construct: also called bactIL-6; prokaryotic IL-6
Experimental: From the washing phase the off-rate (kd) was determined, while from the injection phase the on-rate (ka) was calculated using the concentration and off-rate as parameters.

Binder | IC50, 7TD1 proliferation assay, exp 29.06 [1] | Rel. Potency, 7TD1, exp 29.06 [1] | IC50, 7TD1 proliferation assay, exp 7.07 [1] | Rel. Potency, 7TD1, exp 7.07 [1] | also measured
129F2 (germlined variant of 68F2), full-length IgG1 (antibody, V domains shown) VH: EVQLQESGPGLVKPSQTLSLTCTVSGGSITSRYYAWSWIRQPPGKGLEWIGVIDYDGDTYYSPSLKSRVTISWDTSKNQFSLKLSSVTAEDTAVYYCARDPDVVTGFHYDYWGQGTMVTVSS VL: QSALTQPPSVSGTPGQTVTISCAGANNDIGTYAYVSWYQQLPGTAPKLMIYKVTTRASGIPDRFSGSKSGNTASLTISGLQSEDEADYYCASYRNFNNAVFGGGTKLTVL | 0.517 pM | 1.08 | – | – | IC50, 7TD1 proliferation assay, exp 22.06 [1]: 0.703 pM
129E11 (germlined variant of 68F2), full-length IgG1 (antibody, V domains shown) VH: EVQLQESGPGLVKPSQTLSLTCTVSGGSITSRYYAWSWIRQPPGKGLEWMGVIDYDGDTYYSPSLKSRVTISVDTSKNQFSLKLSSVTAEDTAVYYCARDPDVVTGFHYDYWGQGTLVTVSS VL: QSALTQPPLVSGSPGQTVTISCAGANNDIGTYAYVSWYQQLPGTAPKLLIYKVTTRASGVPDRFSGSKSGNTASLTISGLQSEDEADYYCASYRNFNNAVFGTGTKLTVL | 0.857 pM | 0.65 | 1.55 pM | 0.88 | –
126A3 (germlined variant of 68F2), full-length IgG1 (antibody, V domains shown) VH: EVQLQESGPGLVKPSQTLSLTCTVSGGSITTRYYAWSWIRQPPGKGLEWIGVIDYDGDTYYSPSLKSRVTISVDTSKNQFSLKLSSVTAADTAVYYCARDPDVVTGFHYDYWGQGTMVTVSS VL: QSALTQPPSVSGAPGQTVTISCAGANNDIGTYAYVSWYQQLPGTAPKLLIYKVTTRASGIPSRFSGSKSGNTASLTITGLQSEDEADYYCASYRNFNNAVFGRGTKLTVL | 0.564 pM | 0.99 | 0.63 pM | 2.16 | –
127F1 (germlined variant of 68F2), full-length IgG1 (antibody, V domains shown) VH: EVQLQESGPGLVKPSQTLSLTCTVSGGSITTRYYAWSWIRQPPGKGLEWIGVIDYDGDTYYSPSLKSRVSISWDTSKNQFSLKLSSVTAADTAVYYCARDPDVVTGFHYDYWGQGTLVTVSS VL: QSVLTQPPSVSGTPGQRVTISCAGANNDIGTYAYVSWYQQLPGTAPKLLIYKVTTRASGVPDRFSGSKSGNSASLTITGLQSEDEADYYCASYRNFNNAVFGGGTHLTVL | 0.637 pM | 0.88 | 1.49 pM | 0.91 | –
128G3 (germlined variant of 68F2), full-length IgG1 (antibody, V domains shown) VH: EVQLQESGPGLVKPSQTLSLTCTVSGGSITTRYYAWSWIRQPPGKGLEWIGVIDYDGDTYYSPSLKSRTTISVDTSKNQFSLKLSSVTPEDTAVYYCARDPDVVTGFHYDYWGQGTMVTVSS VL: QSALTQPPSVSGAPGQTVTISCAGANNDIGTYAYVSWYQQLPGTAPKLLIYKVTTRASGVPDRFSGSKSGNTASLAISGLQAEDEADYYCASYRNFNNAVFGGGTHLTVL | – | – | – | – | IC50, 7TD1 proliferation assay, exp 22.06 (batch 17.06) [1]: 1.34 pM; IC50, 7TD1 proliferation assay, exp 29.06 (batch 17.06) [1]: 1.07 pM; IC50, 7TD1 proliferation assay, exp 29.06 (batch 24.06) [1]: 1.46 pM; Rel. Potency, 7TD1, exp 29.06 (batch 24.06) [1]: 0.38
Fab 28C6 (Fab, V domains shown, Fab) VH: QVQLVESGGGLVQPGGSLRLSCAASGFTFSNYYMTWVRQAPGKGLEWVSSIYSFSGDTAYADSVKGRFTISRDNAKNTLYLQMNKLKSEDTAVYYCTRDLGGVVVTANGYDYWGQGTQVTVSS VL: DIVMTQTPSSLSASLGDRVTITCQASQSISTELSWYQQKPGQTPKLLIYGASRLQTGVPARFSGSGSGTSFTLTISGLEAEDLATYYCLQDYSWPYSFGSGTRL | – | – | – | – | Ka [2]: 4.04e+07 M⁻¹; Kd [2]: 24800 pM; koff [2]: 0.0025 s⁻¹; kon [2]: 101000 M⁻¹ s⁻¹
Fab 18F8 (Fab, V domains shown, Fab) VH: EVQLVESGGGLVQPGGSLRLSCAASGFTFSRNAMSWVRQAPGKGLEWVSAINSGGGSTSYADSVKGRFTISRDNAKNTLYLQMNSLKPEDTAVYYCAKEGYTGWKDPMYDYWGQGTQVTVSS VL: QSALTQPSALSVTLGQTAKITCQGGSLGSRYAHWYQQKPGQAPVLVIYDDDSRPSGIPERFSGSSSGGRATLTISGAQAEDEGDYYCQSADTSEHIVFGGGTHLTVLG | – | – | – | – | Ka [2]: 6.18e+07 M⁻¹; Kd [2]: 16200 pM; koff [2]: 0.000784 s⁻¹; kon [2]: 48400 M⁻¹ s⁻¹
